{
  "source": "patent US12012599B2",
  "about": "“Compositions and methods for modulating left-right differentiation factor (LEFTY) and bone morphogenic factor (BMP)” (CZ Biohub SF LLC, priority 2018, dated 2024)",
  "molecules": {"B1": {"name": "LEFTY1: left-right determination factor 1, secreted TGF-β superfamily protein; generic LEFTY may mean LEFTY1 or LEFTY2 (protein, UniProt O75610 77-366, looked up)", "Left-right determination …": "RFSQSFREVAGRFLALEASTHLLVFGMEQRLPPNSELVQAVLRLFQEPVPKAALHRHGRLSPRSARARVTVEWLRVRDDGSNRTSLIDSRLVSVHESGWKAFDVTEAVNFWQQLSRPRQPLLLQVSVQREHLGPLASGAHKLVRFASQGAPAGLGEPQLELHTLDLGDYGAQGDCDPEAPMTEGTRCCRQEMYIDLQGMKWAENWVLEPPGFLAYECVGTCRQPPEALAFKWPFLGPRQCIASETDSLPMIVSIKEGGRTRPQVVSLPNMRVQKCSCASDGALVPRRLQP"}},
  "key": {"ACVR2B": {"system": "ACVR2B", "test": "Proximity ligation assay with other TGF-β receptors", "format": "binding", "experimental": "(§1) FIGS. 5I-5J: LEFTY1 preferentially interacts with BMPR2. […] BMP7-BMPR2 interaction was used as a positive control, and mouse and rabbit IgGs were used as technical negative controls. The interaction of LEFTY with Wnt receptor LRP6 was analyzed as a biological negative control. […] Data are represented as median±S.D. Statistical analysis, one-way ANOVA post-hoc Tukey multiple comparison, ****p<0.0001, ***p<0.001; unless stated analysis is non-significant with p>0.05.\nNext, we assessed the interaction of LEFTY with different type I and type II TGF-β receptors. BMP7-BMPR2 interaction was used as a positive control, and mouse and rabbit IgGs were used as technical negative controls. We also analyzed the interaction of LEFTY with Wnt receptor LRP6 as a biological negative control."}, "pSMAD2": {"system": "pSMAD2", "test": "Western-blot of pSMAD2 in Comma-D mammary epithelial cells", "format": "cell-based, mouse", "settings": "Comma-D cells blocked with LEFTY1 200 ng/ml 1 hour, stimulated with BMP7 and Nodal 50 ng/ml 30 minutes", "experimental": "FIGS. 4J-4L. LEFTY1 inhibits pSMAD2 and pSMAD5 in Comma-D mouse mammary epithelial cells. […] Comma-D cells were serum starved 16 hours and blocked with LEFTY1 (200 ng/ml) for 1 hour and stimulated with BMP7 (50 ng/ml) and Nodal (50 ng/ml) for 30 minutes in serum free media. Cells were harvested in 1×RIPA Buffer with 1× protease and phosphatase inhibitors on ice. Lysates were diluted in 4× sample buffer and boiled at 95° C. for 5 minutes and then run on a 10% SDS-page gradient gels at 100V for 1 hour. […] The membranes were incubated with either pSMAD2, pSMAD5, total SMAD2/3 or SMAD1/5/8 antibodies overnight. Incubation with secondary antibodies containing fluorophores at 1:20,000 dilution (IRDye 800CW conjugated goat anti-rabbit #926-32211, IRDye 680 conjugated goat anti-mouse antibodies #926-32220, LI-COR Biosciences, Lincoln, NE) enabled visualization on the Odyssey Infrared Imaging System from LI-COR Biosciences. […] Data are represented as median±S.D. Statistical analysis, one-way ANOVA with post-hoc Tukey multiple comparison, ****p<0.0001, ***p<0.001; unless stated analysis is non-significant with p>0.05."}, "BMPR2 [1]": {"system": "BMPR2", "test": "LEFTY1 and BMPR2 immunoprecipitation assays", "format": "binding", "settings": "both directions", "from_the_text": "(§2) FIGS. 5A-5H. LEFTY1 inhibits pSMAD2 and pSMAD5 in the basal mammary epithelial cells. […] KRT8 was used to stain the luminal cells and SMA for basal cells (Magnification 400×). […] Gapdh was used as a housekeeping gene. […] Ten different fields were counted per condition (n=3). Data are represented as median±S.D. Statistical analysis, (a and b) Student's T-test, * p<0.05; (h) One-way ANOVA with Dunnet's adjustment, ****p<0.0001.\nFIGS. 7A-7E. LEFTY1 interaction with BMPR2 inhibits the phosphorylation of SMAD5. […] Ten different fields were counted per condition (n=3). […] 48 hours after transfection, cells were washed and incubated with different concentrations of BMP7 (from 0-800 ng/ml) for 16 hours prior to collection of the cells. […] 48 hours after transfection, cells were washed and incubated with different concentrations of LEFTY1 (from 0-200 ng/ml) for 16 hours prior to collection of the cells. […] 48 hours after transfection, cells were washed and incubated with different concentrations of BMP7 and LEFTY1 at the indicated concentrations for 16 hours prior to collection of the cells. Data are represented as median±S.D. Statistical analysis, one-way ANOVA with Dunnet's adjustment, *p<0.05; **p<0.01; ****p<0.0001.\nSince BMPR2 is upstream of pSMAD1/5/8, we reasoned that BMPR2 could serve as a common BMP Type II receptor that mediates the BMP7/LEFTY1 axis. […]"}, "BMPR2 [2]": {"system": "BMPR2", "test": "In situ target-mediated (proximity) ligation assay, BMPR2", "format": "binding", "from_the_text": "as §2, §1\nSince BMPR2 is upstream of pSMAD1/5/8, we reasoned that BMPR2 could serve as a common BMP Type II receptor that mediates the BMP7/LEFTY1 axis. […] The interaction between BMP7 and BMPR2 was used as a positive control (p<0.0001) (FIG. 5G-5H and FIG. 7B).\nNext, we assessed the interaction of LEFTY with different type I and type II TGF-β receptors. […] We also analyzed the interaction of LEFTY with Wnt receptor LRP6 as a biological negative control. […]"}},
  "note": "Like-named read-outs stand apart in the source and are kept apart here.",
  "data": [
    {"molecule": "B1", "values": [
      {"measurement": "interaction with other TGF-β receptors, ACVR2B", "setting": "ACVR2B", "result": "also interacted"},
      {"measurement": "pSMAD2 signal", "setting": "pSMAD2", "result": "inhibited"},
      {"measurement": "binding of LEFTY1 to BMPR2 (pull-down)", "setting": "BMPR2 [1]", "result": "able to detect the binding"},
      {"measurement": "protein interaction with BMPR2", "setting": "BMPR2 [2]", "result": "significant protein interaction"},
      {"measurement": "protein interaction with BMPR2", "setting": "BMPR2 [2]; listed as LEFTY", "result": "interacted preferentially"}
    ]}
  ]
}
